Test results from the Human Domainome abundance scans (Beltran et al. 2025).
± gives the uncertainty stated by the source.

B1: Tyrosine-protein kinase BTK, residues 215 to 273; numbered along this chain, Q06187 (parent)
chain: ELKKVVALYDYMPMNANDLQLRKGDEYFILEESNLPWWRARDKNGQEGYIPSNYVTEAE

Variants of: B1
Assay: abundance fitness (aPCA) (normalised: wild type 0, dead -1); higher = more abundant; growth selection in yeast, the domain comes from the species named
Settings: Homo sapiens

T56V and T56G are within error of each other in abundance fitness: 0.014 ± 0.038 for the first, 0.08 ± 0.055 for the second.

First: T56F
Second: T56P
The abundance fitness of the first is higher: -0.169 ± 0.068 for the first, -0.733 ± 0.07 for the second.

T56C and T56S are within error of each other in abundance fitness: -0.032 ± 0.092 for the first, -0.03 ± 0.04 for the second.

T56N and T56I are within error of each other in abundance fitness: -0.094 ± 0.087 for the first, -0.184 ± 0.071 for the second.

First: T56Y
Second: T56H
The abundance fitness of the first is lower: -0.191 ± 0.064 for the first, 0.014 ± 0.087 for the second.

T56A and T56Q are within error of each other in abundance fitness: 0.033 ± 0.038 for the first, 0.043 ± 0.067 for the second.

T56M and T56W are within error of each other in abundance fitness: 0.025 ± 0.058 for the first, -0.044 ± 0.055 for the second.

Going from T56L to T56R, the abundance fitness rises from -0.086 ± 0.031 to 0.012 ± 0.037.

T56D and N53T are within error of each other in abundance fitness: 0.021 ± 0.062 for the first, -0.054 ± 0.052 for the second.

N53C and N53W are within error of each other in abundance fitness: -0.164 ± 0.077 for the first, -0.137 ± 0.054 for the second.

N53F and N53D are within error of each other in abundance fitness: -0.137 ± 0.066 for the first, -0.043 ± 0.065 for the second.

First: N53S
Second: N53Y
The abundance fitness of the first is higher: -0.006 ± 0.04 for the first, -0.202 ± 0.071 for the second.

N53Q and N53L are within error of each other in abundance fitness: -0.041 ± 0.067 for the first, -0.099 ± 0.037 for the second.

N53E and N53V are within error of each other in abundance fitness: -0.016 ± 0.041 for the first, -0.004 ± 0.038 for the second.

First: N53A
Second: N53I
The abundance fitness of the first is higher: -0.005 ± 0.044 for the first, -0.238 ± 0.091 for the second.

N53K and N53M are within error of each other in abundance fitness: -0.025 ± 0.052 for the first, -0.079 ± 0.048 for the second.

N53H and N53R are within error of each other in abundance fitness: -0.123 ± 0.11 for the first, -0.03 ± 0.04 for the second.

Going from S52R to S52Y, the abundance fitness falls from -0.008 ± 0.038 to -0.226 ± 0.067.

S52W and S52V are within error of each other in abundance fitness: -0.03 ± 0.049 for the first, -0.023 ± 0.044 for the second.

S52T and A58N are within error of each other in abundance fitness: -0.058 ± 0.051 for the first, -0.012 ± 0.073 for the second.

A58Y and A58Q are within error of each other in abundance fitness: -0.016 ± 0.075 for the first, -0.072 ± 0.077 for the second.

First: A58G
Second: A58L
The abundance fitness of the first is higher: -0.01 ± 0.036 for the first, -0.113 ± 0.039 for the second.

A58R and A58V are within error of each other in abundance fitness: -0.03 ± 0.041 for the first, 0.001 ± 0.037 for the second.

A58W and A58I are within error of each other in abundance fitness: -0.11 ± 0.083 for the first, -0.223 ± 0.071 for the second.

A58D and A58C are within error of each other in abundance fitness: -0.092 ± 0.06 for the first, -0.058 ± 0.06 for the second.

A58K and A58T are within error of each other in abundance fitness: -0.005 ± 0.086 for the first, -0.051 ± 0.053 for the second.

A58P and A58E are within error of each other in abundance fitness: -0.001 ± 0.064 for the first, 0.08 ± 0.057 for the second.

A58F and E57G are within error of each other in abundance fitness: -0.016 ± 0.073 for the first, 0.01 ± 0.048 for the second.

E57R and E57L are within error of each other in abundance fitness: -0.065 ± 0.033 for the first, -0.057 ± 0.037 for the second.

E57H and E57I are within error of each other in abundance fitness: 0.023 ± 0.071 for the first, -0.133 ± 0.13 for the second.

E57S and E57A are within error of each other in abundance fitness: -0.009 ± 0.035 for the first, -0.025 ± 0.042 for the second.

E57V and E57Y are within error of each other in abundance fitness: 0.03 ± 0.044 for the first, -0.018 ± 0.083 for the second.

E57N and E57F are within error of each other in abundance fitness: 0.088 ± 0.069 for the first, -0.026 ± 0.063 for the second.

E57D and E57W are within error of each other in abundance fitness: -0.072 ± 0.074 for the first, -0.051 ± 0.042 for the second.

E57Q and E57M are within error of each other in abundance fitness: -0.024 ± 0.043 for the first, -0.022 ± 0.056 for the second.

E57T and E57K are within error of each other in abundance fitness: -0.006 ± 0.051 for the first, -0.047 ± 0.053 for the second.

V55L and V55M are within error of each other in abundance fitness: -0.292 ± 0.042 for the first, -0.284 ± 0.079 for the second.

Going from V55T to V55D, the abundance fitness falls from -0.12 ± 0.06 to -0.891 ± 0.11.

V55N and V55K are within error of each other in abundance fitness: -0.808 ± 0.21 for the first, -0.833 ± 0.12 for the second.

First: V55Q
Second: V55A
The abundance fitness of the first is lower: -0.945 ± 0.16 for the first, -0.32 ± 0.05 for the second.

Going from V55F to V55G, the abundance fitness falls from -0.318 ± 0.061 to -0.827 ± 0.056.

V55H and V55Y are within error of each other in abundance fitness: -0.852 ± 0.11 for the first, -0.836 ± 0.15 for the second.

V55S and V55W are within error of each other in abundance fitness: -0.695 ± 0.05 for the first, -0.784 ± 0.069 for the second.

Compared with V55R, V55C is higher in abundance fitness: -0.905 ± 0.063 for the first, -0.083 ± 0.048 for the second.

First: V55E
Second: E59C
The abundance fitness of the first is lower: -0.617 ± 0.07 for the first, -0.061 ± 0.073 for the second.

With E59L the abundance fitness was -0.097 ± 0.06.
